Test results reported in paper PMC3182920.

T1: human nectin-1 ectodomain, nectin-1(346t) (human), Q15223
T1 chain: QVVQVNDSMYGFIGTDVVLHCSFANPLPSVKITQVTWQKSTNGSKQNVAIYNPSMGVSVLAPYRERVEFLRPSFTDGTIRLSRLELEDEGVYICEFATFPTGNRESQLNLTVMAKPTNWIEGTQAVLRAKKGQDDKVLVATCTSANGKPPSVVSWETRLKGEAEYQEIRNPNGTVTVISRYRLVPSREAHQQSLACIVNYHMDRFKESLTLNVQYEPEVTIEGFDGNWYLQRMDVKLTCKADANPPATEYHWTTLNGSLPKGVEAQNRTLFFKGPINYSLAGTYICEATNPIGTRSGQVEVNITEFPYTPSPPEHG


Tests used:
[1] = molecular target: human nectin-1 ectodomain, nectin-1(346t) (human) (UniProt Q15223); test: SEC-MALS; SEC combined with multi-angle light scattering, purified proteins in solution; data not shown
MAb CK41 = test: ELISA; conditions: sub-panel CK41 (conf); immobilized antibody captures N1V-MBP; detection with anti-MBP-HRP; parent: est. 100; read off a plot
anti-nectin-1 Ig CK6 = test: ELISA; conditions: sub-panel CK6 (80-105); immobilized antibody captures N1V-MBP; detection with anti-MBP-HRP; parent: est. 100; read off a plot
[2] = molecular target: HSV-1 glycoprotein D ectodomain truncated at residue 306 (gD306t); test: ELISA; conditions: read at the highest gD(306t) concentration, about 300 µg/ml; N1V-MBP immobilized; parent: est. 1.5; read off a plot
[3] = molecular target: T1, human nectin-1 ectodomain, …; test: SEC-MALS; SEC combined with multi-angle light scattering, purified proteins in solution; data not shown; conditions: remark: other sources report otherwise

Row | Molecule | stoichiometry N [1] | percent of parent (% wt detection) (MAb CK41) | percent of parent (% wt detection) (anti-nectin-1 Ig CK6) | response [2] | stoichiometry N [3]
1 | HSV-1 KOS glycoprotein D ectodomain truncated at residue 285 (gD285t) (domain or fragment) | 1 | – | – | – | –
2 | nectin-1 V-domain fused to maltose binding protein (N1V-MBP), wild type (from UniProt Q15223-1) F129S | – | 7 | 93 | 0.2 OD405nm | –
3 | nectin-1 V-domain fused to maltose binding protein (N1V-MBP), wild type (from UniProt Q15223-1) F129W | – | 55 | 91 | 1.3 OD405nm | –
4 | nectin-1 V-domain fused to maltose binding protein (N1V-MBP), wild type (from UniProt Q15223-1) N82Y | – | – | 68 | 0.12 OD405nm | –
5 | nectin-1 V-domain fused to maltose binding protein (N1V-MBP), wild type (from UniProt Q15223-1) S84R | – | 120 | 90 | 1.3 OD405nm | –
6 | nectin-1 V-domain fused to maltose binding protein (N1V-MBP), wild type (from UniProt Q15223-1) S84Y | – | 31 | 80 | 0.55 OD405nm | –
7 | nectin-1 V-domain fused to maltose binding protein (N1V-MBP), wild type (from UniProt Q15223-1) T66Q | – | 71 | 110 | 1.4 OD405nm | –
8 | human nectin-1 ectodomain, nectin-1(346t), Q15223-1 31-346 (receptor) QVVQVNDSMYGFIGTDVVLHCSFANPLPSVKITQVTWQKSTNGSKQNVAIYNPSMGVSVLAPYRERVEFLRPSFTDGTIRLSRLELEDEGVYICEFATFPTGNRESQLNLTVMAKPTNWIEGTQAVLRAKKGQDDKVLVATCTSANGKPPSVVSWETRLKGEAEYQEIRNPNGTVTVISRYRLVPSREAHQQSLACIVNYHMDRFKESLTLNVQYEPEVTIEGFDGNWYLQRMDVKLTCKADANPPATEYHWTTLNGSLPKGVEAQNRTLFFKGPINYSLAGTYICEATNPIGTRSGQVEVNITEFPYTPSPPEHG | – | – | – | – | 2
